Assay results as given in US20240287484.

Legend:
Conditions in all cases: qPCR; 3 mM MgCl2, 37 C
[1] = tested on: T1, MG153-14 RT (uncultivated organism (metagenomic))
T1 sequence: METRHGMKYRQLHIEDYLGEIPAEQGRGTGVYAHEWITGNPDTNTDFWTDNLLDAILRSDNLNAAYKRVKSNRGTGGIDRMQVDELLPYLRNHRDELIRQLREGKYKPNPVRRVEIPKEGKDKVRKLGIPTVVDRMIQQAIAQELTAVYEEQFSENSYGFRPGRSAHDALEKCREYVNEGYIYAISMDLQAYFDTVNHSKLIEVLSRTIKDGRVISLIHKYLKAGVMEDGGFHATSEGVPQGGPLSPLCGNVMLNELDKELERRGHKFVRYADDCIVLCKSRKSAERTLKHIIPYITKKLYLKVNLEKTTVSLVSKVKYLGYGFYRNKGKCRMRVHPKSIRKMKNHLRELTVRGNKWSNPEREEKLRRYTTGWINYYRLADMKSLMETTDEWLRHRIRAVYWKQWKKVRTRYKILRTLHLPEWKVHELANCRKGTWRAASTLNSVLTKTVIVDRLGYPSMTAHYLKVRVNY

[2] = tested on: T2, MG153-17 RT (uncultivated organism (metagenomic))
T2 sequence: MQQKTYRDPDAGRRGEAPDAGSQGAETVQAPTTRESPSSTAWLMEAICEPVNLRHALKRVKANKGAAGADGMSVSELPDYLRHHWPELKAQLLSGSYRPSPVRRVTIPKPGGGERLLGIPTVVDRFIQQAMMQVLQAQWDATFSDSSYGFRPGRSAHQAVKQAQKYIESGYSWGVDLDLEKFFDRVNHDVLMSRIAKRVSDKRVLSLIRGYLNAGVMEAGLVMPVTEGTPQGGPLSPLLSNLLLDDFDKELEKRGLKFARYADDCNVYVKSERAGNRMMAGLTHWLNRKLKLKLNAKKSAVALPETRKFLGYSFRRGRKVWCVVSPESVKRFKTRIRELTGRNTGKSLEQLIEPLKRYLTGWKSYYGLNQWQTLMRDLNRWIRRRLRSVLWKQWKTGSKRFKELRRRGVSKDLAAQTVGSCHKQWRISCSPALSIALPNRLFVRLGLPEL

[3] = tested on: T3, MG153-39 RT (uncultivated organism (metagenomic))
T3 sequence: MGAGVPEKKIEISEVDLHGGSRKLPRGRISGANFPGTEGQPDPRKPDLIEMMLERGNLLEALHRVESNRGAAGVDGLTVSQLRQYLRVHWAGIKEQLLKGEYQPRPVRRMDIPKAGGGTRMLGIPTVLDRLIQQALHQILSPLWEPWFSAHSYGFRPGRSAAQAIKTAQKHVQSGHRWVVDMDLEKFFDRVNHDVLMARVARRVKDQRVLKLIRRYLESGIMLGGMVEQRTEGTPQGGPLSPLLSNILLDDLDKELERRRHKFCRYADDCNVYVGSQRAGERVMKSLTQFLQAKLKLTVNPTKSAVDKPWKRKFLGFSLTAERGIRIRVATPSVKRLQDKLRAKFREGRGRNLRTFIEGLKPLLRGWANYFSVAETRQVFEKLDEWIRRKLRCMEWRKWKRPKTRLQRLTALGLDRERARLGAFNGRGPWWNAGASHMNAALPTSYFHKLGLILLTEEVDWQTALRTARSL

[4] = tested on: T4, MG165-4 RT (uncultivated organism (metagenomic))
T4 sequence: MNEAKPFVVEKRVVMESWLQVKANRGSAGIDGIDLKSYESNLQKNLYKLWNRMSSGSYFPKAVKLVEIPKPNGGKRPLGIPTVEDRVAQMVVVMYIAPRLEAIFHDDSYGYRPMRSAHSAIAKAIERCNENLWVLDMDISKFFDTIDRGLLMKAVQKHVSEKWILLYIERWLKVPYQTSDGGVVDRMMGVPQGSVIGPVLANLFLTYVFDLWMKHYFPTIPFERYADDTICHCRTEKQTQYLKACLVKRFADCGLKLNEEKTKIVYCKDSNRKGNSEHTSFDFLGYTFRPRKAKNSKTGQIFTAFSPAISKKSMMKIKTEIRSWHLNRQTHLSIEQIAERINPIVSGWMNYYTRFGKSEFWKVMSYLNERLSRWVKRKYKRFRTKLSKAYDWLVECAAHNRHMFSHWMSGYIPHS

[5] = tested on: T5, MG165-6 RT (uncultivated organism (metagenomic))
T5 sequence: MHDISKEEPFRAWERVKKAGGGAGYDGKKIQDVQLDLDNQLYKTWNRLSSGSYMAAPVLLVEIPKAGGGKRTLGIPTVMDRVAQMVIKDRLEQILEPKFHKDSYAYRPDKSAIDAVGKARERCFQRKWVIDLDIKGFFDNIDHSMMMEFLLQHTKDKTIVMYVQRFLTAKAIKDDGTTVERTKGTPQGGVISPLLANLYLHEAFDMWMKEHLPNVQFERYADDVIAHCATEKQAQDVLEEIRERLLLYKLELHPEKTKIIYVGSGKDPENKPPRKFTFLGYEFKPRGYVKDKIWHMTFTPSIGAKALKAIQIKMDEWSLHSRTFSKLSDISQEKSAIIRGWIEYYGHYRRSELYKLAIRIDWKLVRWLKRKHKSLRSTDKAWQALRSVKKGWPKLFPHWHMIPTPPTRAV

[6] = tested on: T6, MG165-8 RT (uncultivated organism (metagenomic))
T6 sequence: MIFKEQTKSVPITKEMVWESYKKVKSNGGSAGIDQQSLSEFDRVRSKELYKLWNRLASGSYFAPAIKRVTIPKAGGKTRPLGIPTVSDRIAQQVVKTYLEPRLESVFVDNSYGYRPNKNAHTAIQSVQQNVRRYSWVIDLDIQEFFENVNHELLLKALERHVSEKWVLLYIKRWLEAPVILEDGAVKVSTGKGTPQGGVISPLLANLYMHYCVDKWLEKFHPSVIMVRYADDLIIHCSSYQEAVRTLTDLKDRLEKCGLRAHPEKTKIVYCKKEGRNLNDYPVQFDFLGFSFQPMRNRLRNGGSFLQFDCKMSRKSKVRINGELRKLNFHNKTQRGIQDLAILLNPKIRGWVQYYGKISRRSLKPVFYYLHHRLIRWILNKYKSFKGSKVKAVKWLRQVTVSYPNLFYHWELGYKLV

Measured: activity (fold over background)

200 nt RNA template annealed to DNA primer
> 10: [1] | [2] | [3] | [4] | [5] | [6]
